Reference: publication PMC12377726 (Proceedings of the National Academy of Sciences of the …, 2025)

target: eOD-GT8 (engineered outer domain germline-targeting version 8), monomer (HIV-1 gp120 engineered outer domain, …)

Binder | binding result
G001_gp1_V10_VRC01c_2021-0105 (antibody, V domains shown) VH: QVQLVQSGAEVKKPGASVKVSCKASGYTFTGYYIHWVRQAPGQGLEWMGWINPNSGGTNYARQFEGWVTMTRDTSISTAYMELRRLRSDDTAMYYCATEDAVVAGTTFDYWGQGTLVTVSS VL: DIQMTQSPSTLSASVGDRVTITCRASQSMSSWLAWYQQKPGKAPKLLIYKASSLQSGVPSRFSGSGSGTEFTLTISSLQPDDFATYYCQQYNSFGGGTKVEIK | binds
G001_gp1_V10_VRC01c_2021-0106 (antibody, V domains shown) VH: QVQLVQSGAEVKKPGASVKVSCKASGYTFTDYYIHWVRQAPGQGLEWMGWLNPNSGGTNYAQKFQDWVTMTRDTSINTAYMELSRLRSDDTAVYYCASSLSGYGSFSFDYWGQGTLVTVSS VL: EIVLTQSPGTLSLSPGERATLSCRASQSGSSRSLAWYQQKPGQAPRLLIYGASSRATGIPDRFSGSGSGTDFTLTINRLEPEDSAVYYCQQYDSFGQGTKLEIK | binds
G001_gp1_V10_VRC01c_2021-0107 (antibody, V domains shown) VH: not shown VL: DIQMTQSPSSLSASVGDRVTITCRASQSISSYLNWYQQKPGKAPKLLIYAASSLQSGVPSRFSGSGSGTDFTLTISSLQPEDFATYYCQHQGTFGQGTKVEIK | binds
G001_gp1_V10_VRC01c_2021-0108 (antibody, V domains shown) VH: QVQLVQSGAEVKKPGASVKISCKASGYTFSGYYMHWVRQAPGQGLEWMGWINPNSGGTNYAQKFQDWVTMTRDTSISTVYMELSRLRSDDTAVYYCARDWCSGDTCYSGPTFDYWGQGTLVTVSS VL: ESVLTQSPGTLSLSPGERATLSCRASQSVSSNYLAWYQQKPGQAPRLLIYGASSRATGIPDRFSGSGSGTDFTLTISRLEPEDFAVYYCQQYETFGQGTKVEIK | binds
G001_gp1_V10_VRC01c_2021-0109 (antibody, V domains shown) VH: QVQLVQSGAEVKKPGASVKVSCKASGYSFTGYYMHWVRQAPGQGLEWMGWMNPNSGGTNYAQKFQGWVTMTRDTSISTAYMELSRLRSDDSAVYYCARARSGYSSGWYWAYWGQGTLVTVSS VL: DIQMTQSPSSLSASVGDRVTITCQASQDISNYLNWYQQKPGKAPKLLIYDASNLETGVPSRFSGSGSGTDFTFTISSLQPEDIATYYCQQYEFFGGGTKVEIK | binds
G001_gp1_V10_VRC01c_2021-0110 (antibody, V domains shown) VH: QVQLVQSGAEVKKPGASVRVSCKASGYTFTGYYMHWVRQAPGQGLEWMGWTNPNSGGTNYAQKFQGWVTMTRDTSISTAYMELSRLRSDDTAVYYCARGEAYSTRYFDLWGRGTLVTVSS VL: EIVLTQSPGTLSLSPGERATLSCRASQSVSSSYLAWYQQKPGQAPRLLIYDTSSRATGIPDRFSGSGSGTDFTLTISRLEPEDFAVYYCQQYETFGQGTKVEIK | binds
G001_gp1_V10_VRC01c_2021-0111 (antibody, V domains shown) VH: not shown VL: DIQMTQSPSTLSASVGDRVTITCRASQSISSWLAWYQQKPGKAPKLLIYKASSLESGVPSRFSGSGSGTEFTLTISSLQPDDFATYYCQQYTTFGGGTKVEIK | binds
G001_gp1_V10_VRC01c_2021-0112 (antibody, V domains shown) VH: not shown VL: EIVLTQSPGTLSLSPGERATLSCWASQSVNSRYVAWYQQKPGQAPRLLIYGASSRATGIPDRFSGSGSGTDFTLTISRLEPEDFAVYYCQQYETFGQGTRLEIK | binds
G001_gp1_V10_VRC01c_2021-0114 (antibody, V domains shown) VH: QVQLVQSGAEVKKPGASVKVSCKASGYTFTGYNIHWVRQDPGQGLEWMGWINPNSGGTNYAQKFQDWVTMTRDMSISTAYMELSRLRSDDTAIYYCAAVAGRRGRWAFDIWGQGTMVTVSS VL: not shown | binds
G001_gp1_V10_VRC01c_2021-0115 (antibody, V domains shown) VH: QVQLVQSGAEVKKPGASVKVSCNASGYTFTGYYMHWVRQAPGQGLEWMGWINPNSGGTNFAQKFQGWVTMTRDTSISTAYMELSRLRSDDTAVYYCARSIVGATIFVYWGQGTLVTVSS VL: EIVLTQSPGTLSLSPGERATLSCRASQSLSSSYLAWYQQKPGQAPRLLIYGASSRATGIPDRFSGSGSGTDFTLTISRLEPEDFAVYYCQQYGAFGPGTKVDIK | binds
G001_gp1_V10_VRC01c_2021-0116 (antibody, V domains shown) VH: QVQLVQSGAEVKKPGASVKVSCKASGYTFTDYYIHWVRQAPGQGLEWMGWINPNSGGTNYAQKFQGRVTMTRDTSITTAYMELSRLRSDDTAVYYCARICSGGSCYRTTSTFDYWGQGTLVTVSS VL: not shown | binds
G001_gp1_V10_VRC01c_2021-0117 (antibody, V domains shown) VH: QVQLVQSGAEVKKPGASVKVSCKASGYTFTGYYMHWVRQAPGQGLEWMGWINPNSGGTNYAQKFQGWVTMTRDTSISTAYMEVSRLTSDDTAVYYCARGEDNWYSFNYWGQGTLVTVSS VL: EIVMTQSPATLSVSPGERATLSCRASQSVSSKLAWYQQKPGQAPRLLIYGTSTRATGIPARFSGSGSGTEFTLTISSLQSEDFAVYYCQLYETFGQGTKVEIK | binds
G001_gp1_V10_VRC01c_2021-0119 (antibody, V domains shown) VH: QVQLVQSGAEVKRPGASVMVSCKASGYTFTNYYMHWVRQAPGQGLEWMGWINPSSGGTNYAQKFQDWVTMTRDTSISTVYMELNRLRFDDTAVYFCARAQSSGWFLDFWGQGTLVTVSS VL: DIQMTQSPSSLSASVGDRVTITCQASQGFTKYLNWYQQKLGKAPKLLIYDASNLETGVPSRFSGSASGTDFTFTISSLQPEDIATYYCQQYDLFGGGTKVEIR | binds
G001_gp1_V10_VRC01c_2021-0120 (antibody, V domains shown) VH: QVQLVQSGAEVKKPGASVKVSCKASGYTFSGYYMHWVRQAPGQGLEWMGWINPNSGGTNYAQRFQDWVTMTRDTSISTAYMELSRLRSDDTAVYYCARAEYSSAWCFDYWGQGTLVTVSS VL: DIQMTQSPSSLSASVGDRVTITCQASQDSSKSLNWYQQKPGKAPKLLIYDVSNLETGVPSRFSGSGSGRDFTFTISSLQAEDTATYYCQQYDIFGPGTKVHIK | binds
G001_gp1_V10_VRC01c_2021-0121 (antibody, V domains shown) VH: QVQLVQSGAEVKKPGASVKVSCKASGYSFTGYYIHWVRQVPGQGLEWMGWINPNSGGTNYAQEFQDWVTMTRDTSISTAYMELSRLRSDDTAVYYCARHKPSSRFYFDYWGQGTLVTVSS VL: DIQMTQSPSTLSASVGDRVTITCRASQSISSWLAWYQQKPGKAPKFLLMYDASSLESGVPSRFSGSGSGTEFTLTISSLQPDDFATYYCQQYETFGQGTKVEIK | binds
G001_gp1_V10_VRC01c_2021-0122 (antibody, V domains shown) VH: not shown VL: DIQMTQSPSSLSASVGDRVTITCQASQDISNYLNWYQQKPGKAPKLLIYDASNLETGVPSRFSGSGSGTDFTFTISSLQPEDIATYYCQQYGTFGQGTKLEIK | binds
G001_gp1_V10_VRC01c_2021-0123 (antibody, V domains shown) VH: not shown VL: DIQMTQSPSTLSASVGDRVTITCRASQSISSWLAWYQQKPGKAPKLLIYKASSLESGVPSRFSGSGSGTEFTLTISSLQPDDFATYYCQQYNTFGQGTKVEIK | binds
G001_gp1_V10_VRC01c_2021-0124 (antibody, V domains shown) VH: QVQLVQSGAEVKKPGASVKVSCKASGYTFTGYYMHWVRQAPGQGLEWMGWINPNSGGTNYARKFQGWVTMTRDTSIGTAYMELSRLRSDDTAVYYCAKSRSRDDTWLFDYWGQGTLVTVSS VL: DIVMTQSPDSLAVSLGERATINCKSSRSVLYSSNNKNFLTWYQQKPGQPPKLLIYWASTRESGVPERFSGSGSGTDFTLTISSLQAEDVAVYYCQQYESFGQGTKLEIK | binds
